Source: patent US20140248636

B1: NO66 (A116-N641), N-terminally hexa-His tagged, recombinant (protein)
chain: QTPSARLVPASAPPARLVEVPAAPVRVVETSALLCTAQHLAAVQSSGAPATASGPQVDNTGGEPAWDSPLRRVLAELNRIPSSRRRAARLFEWLIAPMPPDHFYRRLWEREAVLVRRQDHTYYQGLFSTADLDSMLRNEEVQFGQHLDAARYINGRRETLNPPGRALPAAAWSLYQAGCSLRLLCPQAFSTTVWQFLAVLQEQFGSMAGSNVYLTPPNSQGFAPHYDDIEAFVLQLEGRKLWRVYRPRVPTEELALTSSPNFSQDDLGEPVLQTVLEPGDLLYFPRGFIHQAECQDGVHSLHLTLSTYQRNTWGDFLEAILPLAVQAAMEENVEFRRGLPRDFMDYMGAQHSDSKDPRRTAFMEKVRVLVARLGHFAPVDAVADQRAKDFIHDSLPPVLTDRERALSVYGLPIRWEAGEPVNVGAQLTTETEVHMLQDGIARLVGEGGHLFLYYTVENSRVYHLEEPKCLEIYPQQADAMELLLGSYPEFVRVGDLPCDSVEDQLSLATTLYDKGLLLTKMPLALN
In the case of B1, the “extent of peptide hydroxylation by MALDI-TOF” value (RpL8 209-228 peptide (…)) is reported as “hydroxylated to ˜85% as tested by MALDI-TOF analyses” and the “mass increase of the peptide by MALDI-TOF (hydroxylation)” value (RpL8 209-228 peptide (…)) is reported as “displayed 16 Da increase in mass”.

B2: Mina53 (A26-V465), N-terminally hexa-His tagged, recombinant (protein)
chain: AAGGPSALNFDSPSSLFESLISPIKTETFFKEFWEQKPLLIQRDDPALATYYGSLFKLTDLKSLCSRGMYYGRDVNVCRCVNGKKKVLNKDGKAHFLQLRKDFDQKRATIQFHQPQRFKDELWRIQEKLECYFGSLVGSNVYITPAGSQGLPPHYDDVEVFILQLEGEKHWRLYHPTVPLAREYSVEAEERIGRPVHEFMLKPGDLLYFPRGTIHQADTPAGLAHSTHVTISTYQNNSWGDFLLDTISGLVFDTAKEDVELRTGIPRQLLLQVESTTVATRRLSGFLRTLADRLEGTKELLSSDMKKDFIMHRLPPYSAGDGAELSTPGGKLPRLDSVVRLQFKDHIVLTVLPDQDQSDEAQEKMVYIYHSLKNSRETHMMGNEEETEFHGLRFPLSHLDALKQIWNSPAISVKDLKLTTDEEKESLVLSLWTECLIQVV
In the case of B2, the “extent of peptide hydroxylation by MALDI-TOF” value (RpL27a31-50 peptide (…)) is reported as “hydroxylated to ˜95% as tested by MALDI-TOF analyses” and the “mass increase of the peptide by MALDI-TOF (hydroxylation)” value (RpL27a31-50 peptide (…)) is reported as “displayed a 16 Da increase in mass”.
